From PMC4977500, “Rescuing neuronal cell death by RAIDD- and PIDD- derived peptides and its implications for therapeutic intervention in neurodegenerative diseases” (Scientific Reports, 2016) come the findings set out here.

B3: PIDD DD (domain or fragment, UniProt Q9HB75 777-883, looked up)
chain: LNLGDAETGFLTQSNLLSVAGRLGLDWPAVALHLGVSYREVQRIRHEFRDDLDEQIRHMLFSWAERQAGQPGAVGLLVQALEQSDRQDVAEEVRAVLELGRRKYQDS
notes: PIDD death domain, amino acids 777-883; The His tag is named on the protein for the pull-down; also called his-tagged PIDD DD; PIDD death domain; source: E. coli BL21 (DE3) RILP, purified
B4: RAIDD DD (domain or fragment)
chain: not shown
notes: RAIDD death domain, amino acids 94-199; also called RAIDD death domain; source: E. coli BL21 (DE3) RILP, purified

What all share (conditions): both partners purified
The assay “RAIDD DD” addresses B4. Briefly: native gel or EMSA; native-PAGE on a PhastSystem, 8-25% acrylamide gradient gels, Coomassie staining; complexes in 20 mM Tris pH 8.0, 50 mM NaCl; pre-incubated with or without peptide for 1 hour at room temperature; complex band without peptide taken as 100%.
The assay “PIDD DD” deals with B3. The assay is described as above.
The target of another assay is T1, full-length RAIDD (UniProt P78560 1-199).
T1 construct: RAIDD, full length, amino acids 1-199; source: E. coli BL21 (DE3), purified (Ni-NTA, S-200 gel filtration)
T1 sequence (P78560 whole entry, the tested form may be a part): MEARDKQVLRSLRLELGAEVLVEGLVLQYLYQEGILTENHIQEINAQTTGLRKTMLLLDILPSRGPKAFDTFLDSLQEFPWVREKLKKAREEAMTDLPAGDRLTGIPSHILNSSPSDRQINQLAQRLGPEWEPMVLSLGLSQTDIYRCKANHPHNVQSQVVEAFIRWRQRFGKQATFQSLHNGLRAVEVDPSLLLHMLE
Described as above.

Assay [1] concerns the target T2, Full-length RAIDD without any tag (UniProt P78560 1-199).
T2 construct: RAIDD, full length, amino acids 1-199; source: E. coli BL21 (DE3), purified
Nature of the assay: pull-down; his-tagged PIDD DD on Ni-NTA beads, full-length RAIDD without any tag, with RDH3 or PDH3 (30 μM or 500 μM); wash 20 mM Tris-HCl pH 7.9, 500 mM NaCl, 30 mM imidazole; eluate on SDS-PAGE.

Bounds are passed on as bounds.

T2 sequence (P78560 whole entry, the tested form may be a part): as above
Sequence of RAIDD DD (P78560 94-199): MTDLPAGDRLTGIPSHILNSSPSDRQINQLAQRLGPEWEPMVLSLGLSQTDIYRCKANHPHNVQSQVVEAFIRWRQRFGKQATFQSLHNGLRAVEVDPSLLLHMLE

B1: PDH3 (TAT-fused peptide with wildtype PIDD DD helix 3) (peptide)
peptide: YGRKKRRQRRRGGGGVSYREVQRIRHEFR
notes: PIDD helix 3 (H3 of the death domain), wildtype; FITC-labelled versions were also made, but only for microscopy of cell entry; also called PIDD H3; source: synthetic peptide (Peptron)
As to B1, in the assay with RAIDD DD, the “fold inhibitory capacity against TAT-Y814A (blocking of RAIDD DD:PIDD DD)” value was greater than 5 fold.

B2: RDH3 (TAT-fused peptide with wildtype RAIDD DD helix 3) (peptide)
peptide: YGRKKRRQRRRGGGGLSQTDIYRCKANHPHNV
notes: RAIDD helix 3 (H3 of the death domain), wildtype; FITC-labelled versions were also made, but only for microscopy of cell entry; also called RAIDD DD H3; source: synthetic peptide (Peptron)
With B2, the “fold inhibitory capacity against TAT-Y814A (blocking of RAIDD DD:PIDD DD)” value with PIDD DD is greater than 5 fold.

As for B3, the binding result (with full-length RAIDD; in assay [1]) was “binds” throughout.

With B4, the binding result with PIDD DD is “binds”.
